# US7252930 (Takeda / Millennium, dated 2007)
# B1: MvaS (HMG-CoA Synthase) from Enterococcus faecalis, full length with non-cleavable carboxy-terminal six histidine tag, seleno-methionine labeled (enzyme)
# chain: MTIGIDKISFFVPPYYIDMTALAEARNVDPGKFHIGIGQDQMAVNPISQDIVTFAANAAEAILTKEDKEAIDMVIVGTESSIDESKAAAVVLHRLMGIQPFARSFEIKEACYGATAGLQLAKNHVALHPDKKVLVVAADIAKYGLNSGGEPTQGAGAVAMLVASEPRILALKEDNVMLTQDIYDFWRPTGHPYPMVDGPLSNETYIQSFAQVWDEHKKRTGLDFADYDALAFHIPYTKMGKKALLAKISDQTEAEQERILARYEESIVYSRRVGNLYTGSLYLGLISLLENATTLTAGNQIGLFSYGSGAVAEFFTGELVAGYQNHLQKETHLALLDNRTELSIAEYEAMFAETLDTDIDQTLEDELKYSISAINNTVRSYRNKGHHHHHH
# modifications: seleno-methionine in place of methionine (100% incorporation by MS); observed mass corresponds to protein without N-terminal methionine
# notes: It was crystallized as a complex with the small molecule HMG-CoA; There are two MvaS molecules (A and B) in the asymmetric unit, described as a dimer; also called MvaS Ef
# Target: the molecule itself
# Experiment: X-ray crystal structure, homodimer in the asymmetric unit
protein,measurement,value
B1,binding result,binds
